Measured values taken from patent US20170052184A1 (published 2017).

Experiments:
[1] = target: T1, HCV bt-141-161 (Peptide 2, HCVc 141-161) (Hepatitis C virus (numbering per HCV-1), biotin (carboxy-terminal per; N-terminal per)); assay: EIA, captured mAb + biotin peptide
T1 peptide: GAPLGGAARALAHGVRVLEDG

[2] = target: T2, HCV bt-151-171 (Peptide 3, HCVc 151-171) (Hepatitis C virus (numbering per HCV-1), biotin (carboxy-terminal per; N-terminal per)); assay: EIA, captured mAb + biotin peptide
T2 peptide: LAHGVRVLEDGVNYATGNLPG

[3] = target: T3, HCV bt-134-154 (Peptide 1, HCVc 134-154) (Hepatitis C virus (numbering per HCV-1), biotin (carboxy-terminal per; N-terminal per)); assay: EIA, captured mAb + biotin peptide
T3 peptide: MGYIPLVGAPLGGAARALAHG

[4] = target: T4, HCV Core 134-171-TT Peptide (hepatitis C virus (HCV-1 numbering) …); assay: SPR, captured mAb, peptide analyte
T4 construct: also called ALRZ-9 peptide

B1: HCV 208B-1096 (antibody, V domains shown)
VH: QVQLQQSGAGLAKPGASVKMSCKASGYTFTANKMHWAKQRPGQGLEWIGYIDPSSGYTEYNHKIQYKATLTADTSSSTAYMQLSTLTFEDSAVYYCTNFAYWGQGTLVTVSA
VL: DIVMTQTPLTLSVTIGQPASISCKSSQSLLFTNGKTYLNWFLQRPGQSPKRLIYLLSKLDSGVPDRFSGSGSGTDFTLKISRVEAEDLGVYYCLQSTYFPLTFGAGTKLELKR
Reactivity (OD 492 nm) [1]: 0.13 OD units | Reactivity (OD 492 nm) [2]: 3.56 OD units

B2: HCV 208B-408 (antibody, V domains shown)
VH: EVKLVESGGGLVQPGGSLRLSCASSGFTFTDYYMSWVRQPPGKALEWLGFIRNKAYGYTTEFSASVNGRFTISRDDSQSVPYLQMNTLRAEDSATYYCARVLYYDYGGFAYWGQGTLVTVST
VL: DIQMTQSPASLSASVGETVTITCRASGNIHTYLAWYQQKQGKSPQLLVYNANTLADGVPSRFSGSGSGTQFSLKINSLQPDDFGSYYCQHFWSAPWTFGGGTQLEIKR
Reactivity (OD 492 nm) [3]: 0.81 OD units | Reactivity (OD 492 nm) [2]: 0.16 OD units

B3: HCV 208B-174 (antibody, V domains shown)
VH: EVKLEESGGGLVQPGGSMKLSCVASGFSFSSYWMSWVRQSPEKGLDWVAEIRLRSDNYATHYAESVKGRFTISRDDSISRLYLQMNTLRAEDTGIYYCTWMTYWGQGTLVTVSA
VL: QNVLTQSPAIMSASPGEKVTMSCSASSSVTYMFWYQLKPESSPRLLIYDTSNLASGVPVRFSGSGSGTSYSLTISRMEAEDAATYYCQEWSSYPLTFGAGTKLDLKR
Kd [4]: 0.25 nM | koff [4]: 0.00018 s⁻¹ | kon [4]: 760000 M⁻¹ s⁻¹

B4: HCV 208A-1064 (antibody, V domains shown)
VH: EVQLQQSGPELVKPGASVKISCKTSGYTFTEYAMHWMKQSHGKSLEWIGGINPTNGDTIYNQKFKDKAKLTVDRSSSTAYMELRSLTSDDSALFYCARRELDYFASWGQGTTLTVSS
VL: DIVLTQSPASLIVSLGQTATISCRASQSVSTSRFSYLHWIQQKPGQPPKLLIKYASNLESGVPVRFSGSGSGTDFTLNIHPVEEEDTATYFCQHSWEFPFTFGSGTKLKIKR
Reactivity (OD 492 nm) [3]: 0.1 OD units | Reactivity (OD 492 nm) [1]: 3.5 OD units | Reactivity (OD 492 nm) [2]: 0.12 OD units

B5: HCV 208A-920 (antibody, V domains shown)
VH: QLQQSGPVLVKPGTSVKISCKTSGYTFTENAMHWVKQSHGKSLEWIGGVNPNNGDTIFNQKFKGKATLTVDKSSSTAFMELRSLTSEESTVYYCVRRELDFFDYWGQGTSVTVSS
VL: DIVLTQSPASLAVSLGQRATISCRASQSVSTSRYSYMHWYQQKPGQPPKLLIKYASNLESGVPARFSGSGSGTDFTLNIHPVAEEDTAAYYCQHSWEFPFTFGSGTKLEIKR
Reactivity (OD 492 nm) [3]: 0.17 OD units | Reactivity (OD 492 nm) [1]: 4 OD units | Reactivity (OD 492 nm) [2]: 0.08 OD units

B6: HCV 208A-126 (antibody, V domains shown)
VH: QLQQSGPVLVKPGASVMISCKTSGYTFTENAMHWVKQSHGKSLEWIGGVNPNNGDTIFNQKFKGKATLTVDKSSNTAFTELRSLPSEESTVYYCVRRGLDFFDYWGQGTSVTVSS
VL: DIVLTQSPASLAVSLGQRATISCRASQSVSTSRYSYMHWYQQKPGQPPKLLIKYASNLESGVPARFSGSGSGTDFTLNIHPVAEEDTAAYYCQHSWEFPFTFGSGTKLEIKR
Reactivity (OD 492 nm) [3]: 0.2 OD units | Reactivity (OD 492 nm) [1]: 2.08 OD units | Reactivity (OD 492 nm) [2]: 0.1 OD units

B7: HCV 208A-110 (antibody, V domains shown)
VH: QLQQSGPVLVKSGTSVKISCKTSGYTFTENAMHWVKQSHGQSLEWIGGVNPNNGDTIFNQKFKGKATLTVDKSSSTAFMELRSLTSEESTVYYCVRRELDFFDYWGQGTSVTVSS
VL: DIVLTQSPASLAVSLGQRATISCRASQSVSTSRYSYMHWYQQKPGQPPKLLIKYASNLESGVPARFSGSGSGTDFTLNIHPVAEEDTAAYYCQHSWEFPFTFGSGTKLEIKR
Reactivity (OD 492 nm) [3]: 0.07 OD units | Reactivity (OD 492 nm) [1]: 2.88 OD units | Reactivity (OD 492 nm) [2]: 0.11 OD units

B8: HCV 208A-741 (antibody, V domains shown)
VH: QLQQSGPVLVKPGASVMISCKTSGYTFTENAMHWVKQSHGKSLEWIGGVNPNNGDTIFNQKFKGKATLTVDKSSSTAFMELRSLTSEESTVYYCVRRELDFFDYWGQGTSVTVSS
VL: DIVLTQSPASLAVSLGQRTTISCGASQSVSTSRFSYMHWYQQKPGQPPKLLIKYASNLESGVPARFSGSGSGTDFTLNIHPVAEEDTAAYYCQHSWEFPFTFGSGTKLEIKR
Reactivity (OD 492 nm) [3]: 1.2 OD units | Reactivity (OD 492 nm) [1]: 3.37 OD units | Reactivity (OD 492 nm) [2]: 0.06 OD units

B9: HCV 208A-334 (antibody, V domains shown)
VH: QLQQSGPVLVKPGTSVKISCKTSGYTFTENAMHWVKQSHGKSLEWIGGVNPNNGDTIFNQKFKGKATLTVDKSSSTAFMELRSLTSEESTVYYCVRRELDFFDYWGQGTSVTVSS
VL: DIVLTQSPASLAVSLGQRATISCRASQSVSTSRYSYMHWYQQKPGQPPKLLIKYASNLESGVPARFSGSGSGTDFTLNIHPVAEEDTAAYYCQHSWGFPFTFGSGTKLEIKR
Reactivity (OD 492 nm) [3]: 0.05 OD units | Reactivity (OD 492 nm) [1]: 3.07 OD units | Reactivity (OD 492 nm) [2]: 0.05 OD units

B10: HCV 208B-251 (antibody, V domains shown)
VH: QLQQSGPVLVKPGASVKISCKTSGYTFTENAMHWVKQSHGKSLEWIGGVNPNNGDTIYNQKFKGKATLTVDKSSSTAFMELRSLTSEESPVYFCVRRELDFFDYWGQGTSVTVSS
VL: DIVLTQSPASLAVSLGKKATISCRASQSVSTSRYSYMHWYQQKPGHPPKLLIKYASNLESGVPARFSGSGSGTDFTLNIHPVAEEDTAAYYCQHSWEFPFTFGSGTKLEIKR
Reactivity (OD 492 nm) [3]: 0.11 OD units | Reactivity (OD 492 nm) [1]: 2.35 OD units | Reactivity (OD 492 nm) [2]: 0.41 OD units

B11: HCV 208B-1094 (antibody, V domains shown)
VH: EVQLQQSGPELVKPGASVKISCKTSGYTFTEYAMHWMKQSHGKSLEWIGGINPTNGDTIYNQRFKDKAKLTVDRSSSTAYMELRSLTSDDSALFYCARRELDYFASWGQGTTLTVSS
VL: DIVLTQSPASLIVSLGQTATISCRASQSLSTSRFSYVHWIQQKPGQPPKLLIKYASNLESGVPVRFSGSGSGTDFTLNIHPVEEEDTATYFCQHSWEFPFTFGSGTKLKIKR
Reactivity (OD 492 nm) [3]: 0.12 OD units | Reactivity (OD 492 nm) [1]: 3.28 OD units | Reactivity (OD 492 nm) [2]: 0.13 OD units

B12: HCV 208A-293 (antibody, V domains shown)
VH: EVQLQQSGPELVKPGASVKISCKASGFTFTEYAMHWMKQSHGKSLEWIGGINPTNGDAIYNQKFKDKAKLTVDRSSSTAYMELRSLTSDDSALFYCARRELDYFPSWGQGTTLTVSS
VL: DIVLTQSPASLIVSLGQRATISCRASQSVSTSRFSYVHWIQQKPGQPPKLLIKYASNLESGVPVRFSGSGSGTDFILNIHPVEEEDTATYFCQHSWEFPFTFGSGTKLEIKR
Reactivity (OD 492 nm) [3]: 0.08 OD units | Reactivity (OD 492 nm) [1]: 2.42 OD units | Reactivity (OD 492 nm) [2]: 0.11 OD units

B13: HCV 208A-133 (antibody, V domains shown)
VH: QLQQSGPVLVGPGASVMISCKTSGYTFTENAMHWVEQSHGKSLEWIGGVNPNNGDTIFNQKFKGKATLTVDKSSSTAFMEFRSLTSEESTVYYCVRRELDFFDYWGQGTSVTVSS
VL: DIVLTQSPASLAVSLGQRATISCRASQSVSTSRYSYMHWYQQKPGQPPKLLIKYASNLESGVPARFSGSGSGTDFTLNIHPVAEEDTATYYCQHSWEFPFTFGSGTKLEIKR
Reactivity (OD 492 nm) [3]: 0.1 OD units | Reactivity (OD 492 nm) [1]: 3.68 OD units | Reactivity (OD 492 nm) [2]: 0.13 OD units

B14: HCV 208A-159 (antibody, V domains shown)
VH: QLQQSGPAQVKPGASVMISCKTSGYTFTENAMHWVKQSHGKSLEWIGGVNPNNGDTIFNQKFKDKAALTVDKSSSTAFMELRSLTSEESTVYYCVRRELDFFDYWGQGTSVTVSS
VL: DIVLTQSPASLAVSLGQRATISCRASQSVSTSRYSYVHWYQQKPGQPPKLLIKYAANLESGVPARFSGSGSGTDFTLNIHPVAEEDAAAYYCQHSWEFPFTFGSGTKLEIKR
Reactivity (OD 492 nm) [3]: 0.15 OD units | Reactivity (OD 492 nm) [1]: 3.77 OD units | Reactivity (OD 492 nm) [2]: 0.19 OD units

B15: HCV 208B-556 (antibody, V domains shown)
VH: QLQQSGPVLVKPGASVMISCKTSGYTFTENAMHWVKQSHGKSLEWIGGVNPNNGDTIFNQKFKGKATLTVDKSSSTAFMEFRSLTSEESTVYYCVRRELDFFDYWGQGTSVTVSS
VL: DIVLTQSPASLAVSLGQRATISCRASQSVSTSRYSYMHWYQQKPGQPPKLLIKYASNLESGVPARFSGSGSGTDFTLNIHPVAEEDTATYYCQHSWEFPFTFGSGTKLEIKR
Reactivity (OD 492 nm) [3]: 0.13 OD units | Reactivity (OD 492 nm) [1]: 3.07 OD units | Reactivity (OD 492 nm) [2]: 0.18 OD units

B16: HCV 208A-983 (antibody, V domains shown)
VH: QGQMQQSGAELVKPGASVKLSCKTSGFTFSSSYFSWLKQKPGQSLEWIAWIYAGTGNTIYNQKFTDKAQLTVDTASSTAFMQLSSLTIEDSAIYYCAISGTGFTYWGQGTLVTVSA
VL: DVLMTQTPLSLPVNLGDQASISCRSSQSLLHSNGNTYLEWFLQKPGQSPKLLIYNVSNRFSGVPDRFSGSGSGTDFTLKISRVEAEDLGVYYCFQGSHVPFTFGSGTKLAIKR
Kd [4]: 0.46 nM | koff [4]: 4.6e-05 s⁻¹ | kon [4]: 97000 M⁻¹ s⁻¹

B17: HCV 208B-471 (antibody, V domains shown)
VH: QGQLQQSGPVLVKPGASEILYCKTSGFTFSSTYISWLKQKPGQSLEWIAWIYAGTGATNYNQKFTGKAQLTVDASSNTAYMHFSGLTPEDSAIYYCAISGAGVYWGQGTLVTVSA
VL: DVVMTQTPLSLPVSLGDQASISCRSSQSLLHSNGNTYLEWYLQKPGQSPNLLIYNVSNRFSGVPDRFSGSGSGTDFALKISRVGAEDLGVYYCFQGSHVPLTFGAGTKLELKR
Kd [4]: 0.25 nM | koff [4]: 5.5e-05 s⁻¹ | kon [4]: 220000 M⁻¹ s⁻¹

B18: HCV 208A-692 (antibody, V domains shown)
VH: QGQMQQSGAELAKPGASVKLSCKTSGFTFSSSYISWLKQKPGQSLEWIAWIFAGTGNTNYNQKFTDKAQLTVDTSSSTAYMQLSSLTTEDSAIYYCAISGTGFTYWGQGTLVTVSA
VL: EVLMTQSPLSLPVSLGDQASISCRSSQSLEHSNGNTYLEWFLQRPGQPPKLLIYKVSSRFSGVPDRFSGSGSGTDFTLKISRVEAEDLGVYYCFQGSHVPFTFGSGTKLAIKR
Reactivity (OD 492 nm) [3]: 3.67 OD units | Reactivity (OD 492 nm) [2]: 0.07 OD units
